Reference: patent US20210395323A1

Target: TNFR2 on human cells (Kym-1 cells; human CD3+ T cells) (human) (UniProt P20333)
Test: cell-based or functional assay

TNFR2 on human cells (Kym-1 cells; human CD3+ T cells) (human), sequence (P20333 23-461): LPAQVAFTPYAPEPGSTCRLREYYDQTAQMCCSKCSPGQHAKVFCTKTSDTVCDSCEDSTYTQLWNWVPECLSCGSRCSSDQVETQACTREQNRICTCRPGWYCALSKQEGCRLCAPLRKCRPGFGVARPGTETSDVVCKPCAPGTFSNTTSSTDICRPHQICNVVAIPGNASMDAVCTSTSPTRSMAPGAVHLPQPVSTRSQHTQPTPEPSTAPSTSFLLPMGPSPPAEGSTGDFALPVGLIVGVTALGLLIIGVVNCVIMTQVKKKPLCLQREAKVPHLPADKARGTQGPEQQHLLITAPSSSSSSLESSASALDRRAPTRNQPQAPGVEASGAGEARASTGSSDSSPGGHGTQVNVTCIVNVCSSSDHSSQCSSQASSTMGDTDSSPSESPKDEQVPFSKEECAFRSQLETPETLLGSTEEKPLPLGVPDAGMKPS

| Substance | EC50 of Kym-1 cell viability (crystal violet assay after 16 h) | EC50 values (nM) of cell death induction using Kym-1 cells |
| --- | --- | --- |
| VASP-scTNFR2 (ligand) | 7 µM |  |
| human single-chain TNF variant (D143N/A145R, scTNFR2) (from UniProt Q8HZD9 77-232) (ligand) |  | 0.347 nM |
| scTNFR2-Fc-scTNFR2 (Fc fusion) | 8.5 µM |  |
